Measured values reported in patent publication US20260248837A1.

Biological target: human CXCR4 (human) (UniProt P61073)
Assay: cell-based or functional assay

Chain of UniProt P61073 (P61073 1-350): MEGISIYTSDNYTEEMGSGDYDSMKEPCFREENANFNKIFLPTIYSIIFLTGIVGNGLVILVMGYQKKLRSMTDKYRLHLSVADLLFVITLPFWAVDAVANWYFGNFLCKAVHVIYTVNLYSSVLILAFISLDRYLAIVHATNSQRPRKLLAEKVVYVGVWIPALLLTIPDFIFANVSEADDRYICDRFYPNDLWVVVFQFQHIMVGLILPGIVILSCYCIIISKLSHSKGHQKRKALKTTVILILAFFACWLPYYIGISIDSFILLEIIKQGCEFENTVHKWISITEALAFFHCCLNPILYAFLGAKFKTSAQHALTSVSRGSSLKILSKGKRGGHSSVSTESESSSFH

human CXCL12 (human CXCL12α, L-CXCL12) (ligand)
migration of Jurkat cells (chemotaxis assay), half-maximal stimulation: 0.3 nM | migration of Nalm-6 cells (chemotaxis assay), half-maximal stimulation: 0.3 nM
